We go through six molecules from patent US20080279855A1, “Dna Replication Modulating Peptides, Nucleic Acids Encoding Them, and Their Use in Pharmaceutical Compositions” (CENTRE NATIONAL DE LA RECHERCHE SCIENTIFIQUE, priority 2004, published 2008).

Entries after “also recorded” stand apart in the source; their conditions may differ.

This test relates to DNA synthesis in Xenopus egg extracts. Briefly: in vitro DNA replication (DNA synthesis inhibition) assay in Xenopus egg extracts, alpha-32P dCTP incorporation. The following applies: for inhibition of DNA synthesis (in words): sperm nuclei 3 ng/μl, 2 hours at room temperature. Type of test: biochemical. How it is done:
The capacity of a compound to inhibit DNA replication can be measured as described in Example 3, by following the general method given in Blow, J. J. & Laskey, R. A. (1986). Initiation of DNA replication in nuclei and purified DNA by a cell-free extract of Xenopus eggs. Cell 47, 577-87
FIG. 3A represents the activity of HsGeminin deletion mutants. The DNA synthesis inhibition activity of a series of HsGeminin deletion mutant proteins was measured by incubation in Xenopus egg extracts. […] DNA synthesis was measured by incorporation of a radioactive label DNA precursor (dCTP) upon 2 hours incubation at room temperature. Numbers indicate the amino-acids of the HsGeminin protein. LZ=coiled-coil domain.
In order to determine whether a homodimer form of Geminin is functional, the Inventors have tested the ability of this peptide to inhibit DNA synthesis in an in vitro DNA replication assay derived from Xenopus eggs^18.
Briefly, Xenopus egg extracts were prepared as previously described^35. Inhibition assays were carried out in a 20 μl reaction containing 3 ng/μl of sperm nuclei and the indicated amounts of proteins at 1:40 ratio (protein to extract). Replication was measured by incorporation of α^32P dCTP following 2 hours incubation at room temperature.

For the molecule “HsGem-LZ: residues Leu110-Ala145 of human Geminin with an extra N-terminal capping Thr residue, made by Fmoc solid-phase peptide synthesis”, the “inhibition of DNA synthesis (in words)” value is given as “non-functional”. The “interference with DNA synthesis at concentration much higher than wild-type protein” value (e.g. 320 nM) was “did not interfere with DNA synthesis”.

B1: HsGem(80-212): form of HsGeminin (residues 80-212) with the coiled-coil domain plus the entire carboxy-terminal part (protein)
chain: GVTQESFDLMIKENPSSQYWKEVAEKRRKALYEALKENEKLHKEIEQKDNEIARLKKENKELAEVAEHVQYMAELIERLNGEPLDNFESLDNQEFDSEEETVEDSLVEDSEIGTCAEGTVSSSTDAKPCI
Turning to B1, the “inhibition of DNA synthesis (in words)” value is “keep the ability of Geminin to inhibit DNA synthesis; also recorded: Full inhibition”. Besides, for the setting “listed as HsGeminin (residues 80-212)”, the “inhibition of DNA synthesis (in words)” value is “effective in inhibiting DNA synthesis”.

B2: HsGem(76-160): deletion mutant of human Geminin, residues 76-160, hexahistidine-tagged, expressed in E. coli (protein)
chain: KNLGGVTQESFDLMIKENPSSQYWKEVAEKRRKALYEALKENEKLHKEIEQKDNEIARLKKENKELAEVAEHVQYMAELIERLNG
modifications: hexahistidine tag
notes: deletion mutant of human Geminin, residues 76-160, hexahistidine-tagged, expressed in E. coli
For the molecule B2, the “inhibition of DNA synthesis (in words)” value was “Full inhibition”.

B3: HsGem(82-160): deletion mutant of human Geminin, residues 82-160, hexahistidine-tagged, expressed in E. coli (protein)
chain: TQESFDLMIKENPSSQYWKEVAEKRRKALYEALKENEKLHKEIEQKDNEIARLKKENKELAEVAEHVQYMAELIERLNG
modifications: hexahistidine tag
notes: deletion mutant of human Geminin, residues 82-160, hexahistidine-tagged, expressed in E. coli
For the molecule B3, the “inhibition of DNA synthesis (in words)” value is on record as “inhibited DNA synthesis, although less efficiently compared to the wild-type protein”.

B4: HsGem(82-145): deletion mutant of human Geminin, residues 82-145, hexahistidine-tagged, expressed in E. coli (protein)
chain: TQESFDLMIKENPSSQYWKEVAEKRRKALYEALKENEKLHKEIEQKDNEIARLKKENKELAEVA
For B4, the “inhibition of DNA synthesis (in words)” value was “not functional”. Where the note is “listed as mutant 82-145”, the “inhibition of DNA synthesis (in words)” value was “ineffective in inhibiting DNA synthesis”.

B5: wild type protein: total amino acid sequence of human Geminin, about 25 kDa negative regulator of genome replication (protein, listed as Homo sapiens)
chain: MNPSMKQKQEEIKENIKNSSVPRRTLKMIQPSASGSLVGRENELSAGLSKRKHRNDHLTSTTSSPGVIVPESSENKNLGGVTQESFDLMIKENPSSQYWKEVAEKRRKALYEALKENEKLHKEIEQKDNEIARLKKENKELAEVAEHVQYMAELIERLNGEPLDNFESLDNQEFDSEEETVEDSLVEDSEIGTCAEGTVSSSTDAKPCI
Regarding B5, the “inhibition of DNA synthesis (in words)” value was “efficiently inhibited DNA synthesis”.
